Reference: patent US20040077031

System: MAS (methionine-alanine-serine) trimeric peptide

Substance: recombinant human methionine aminopeptidase type 1 (MetAP1) with N-terminal histidine tag
- enzymatic cleavage of peptide substrate: showed enzymatic activity in cleaving a tripeptide MAS substrate
